Source: patent publication US20250051464A1 (IMMUNOME, published 2025)

Assays:
[1] = molecular target: T1, human EphA2 (ephrin receptor A2), on cells (human, UniProt P29317 24-976); test: flow cytometry binding on A549 cells
T1 construct: Used for HEK293 transfectants, A549 and other human tumor cell lines
Description: (§1) Surface binding of the antibodies to in vitro grown cell lines was assessed by flow cytometry. Tumor cells were detached from their culture plate using Versene and counted. Cells were staining in BSA-containing buffer with primary antibody for 30 minutes at 4° C. with shaking. Following, cells were washed and stained with secondary PE-labeled antibody for 30 minutes at 4° C. with shaking. Before analysis on an Intellicyt iQue3 scanner, cells were counterstained with DAPI. MedFI values from live, single cells was expressed as fold over isotype control.

[2] = molecular target: T2, C-terminally His-tagged hEphA2-FN2 (Thr437-Asn534+His tag) (human, UniProt P29317 437-534); test: SPR Biacore T200, 25 C, mIgG2a captured by anti-mouse Fc, FN2-His as analyte, steady-state fit, monovalent
T2 construct: SPR analyte; also called FN2 domain of hEphA2
Description: Binding of antibodies to the FN2 domain of hEphA2 was measured using the Biacore® T200 SPR system at 25° C. using HBS-EP+ buffer (0.01 M HEPES pH 7.4, 0.15 M NaCl, 3 mM EDTA, 0.005% v/v Surfactant P20). Antibodies in mIgG2a format were captured at levels between 475-715 RU via an anti-mouse Fc antibody immobilized to a CM5 chip. Binding was assessed using a titration of C-terminally His-tagged hEphA2-FN2 (Thr437-Asn534+His tag) associated for 30 s or 75 s at 30 uL/min. Data was double-reference subtracted using both a surface without captured antibody and from injections of HBS-EP+ buffer. The equilibrium response was measured at 4 seconds before the end of association with a window of 5 seconds and fit using the Biacore T200 Evaluation Software 3.1 with the Steady State Affinity Model.

[3] = molecular target: T1, human EphA2 (ephrin receptor A2), on …; test: flow cytometry on A549 cells
Description: as §1

T2 sequence (P29317 437-534 limits assumed): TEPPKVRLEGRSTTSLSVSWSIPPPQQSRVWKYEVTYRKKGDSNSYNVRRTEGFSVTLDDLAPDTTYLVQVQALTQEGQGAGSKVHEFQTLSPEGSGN
T1 sequence (P29317 24-976 limits assumed): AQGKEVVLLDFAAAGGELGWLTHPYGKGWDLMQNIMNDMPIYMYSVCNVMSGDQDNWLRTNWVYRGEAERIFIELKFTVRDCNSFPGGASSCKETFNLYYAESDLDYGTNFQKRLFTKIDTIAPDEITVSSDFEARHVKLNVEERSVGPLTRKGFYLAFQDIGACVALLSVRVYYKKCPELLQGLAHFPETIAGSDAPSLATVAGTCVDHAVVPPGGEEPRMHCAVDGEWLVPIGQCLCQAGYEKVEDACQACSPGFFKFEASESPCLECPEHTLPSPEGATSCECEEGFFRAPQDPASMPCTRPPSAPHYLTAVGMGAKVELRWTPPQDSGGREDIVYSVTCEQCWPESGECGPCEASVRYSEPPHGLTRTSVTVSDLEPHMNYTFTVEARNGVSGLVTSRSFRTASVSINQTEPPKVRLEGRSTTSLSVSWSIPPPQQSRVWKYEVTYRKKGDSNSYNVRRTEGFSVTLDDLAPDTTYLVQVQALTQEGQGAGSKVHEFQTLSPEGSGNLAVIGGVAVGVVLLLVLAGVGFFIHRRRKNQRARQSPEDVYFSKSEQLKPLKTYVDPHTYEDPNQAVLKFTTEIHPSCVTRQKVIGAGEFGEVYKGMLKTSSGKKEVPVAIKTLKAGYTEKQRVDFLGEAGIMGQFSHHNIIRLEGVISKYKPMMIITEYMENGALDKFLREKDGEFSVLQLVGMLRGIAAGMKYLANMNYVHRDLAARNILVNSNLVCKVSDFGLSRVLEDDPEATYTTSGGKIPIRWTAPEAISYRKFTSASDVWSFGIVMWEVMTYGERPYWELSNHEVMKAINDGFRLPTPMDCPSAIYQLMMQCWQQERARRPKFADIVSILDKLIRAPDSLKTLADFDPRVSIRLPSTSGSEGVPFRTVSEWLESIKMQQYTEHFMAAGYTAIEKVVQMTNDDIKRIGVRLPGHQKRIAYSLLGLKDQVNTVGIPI

| Flow Delta activity (MedFI) [1] | Kd [2] | Delta (flow) [3] | EC50 [3] | Binder |
| --- | --- | --- | --- | --- |
| 29500 MedFI | – | – | – | AB-009808 (antibody, mouse IgG2a, V domains shown) VH: QVQLQQWGAGLLKPSETLSLTCAVYGGSFSDYYWSWIRQPPGKGLEWIGEINHSGSTNYNPSLKSRVTISVDPSKNQFSLKLTSVTAADTAVYYCAKPFRPHCTNGVCYSGDAFDIWGQGTMVTVSS VL: SYVLTQPPSVSVAPGQTARITCGGNNIGSKNVHWYQQKPGQAPVLVVYDDSDRPSGIPEQFSGSNSGNTATLTISRVEAGDEADYYCQVWDSSSDHLVFGGGTKLTVL |
| – | 1310 nM | – | – | AB-010363 (antibody, V domains shown, Tested in mIgG2a format) VH: QVQLQQWGAGLLKPSETLSLTCAVYGGSFSGYYWSWIRQPPGKGLEWIGEINHRGSINYNNYNPSLKSRVTISVDTSKNQFSLKLSSVTAADTAVYYCAKPLRPHCTNGVCYSGDAFDIWGQGTMVTVAS VL: SYVLTQPPSVSVAPGQTARITCGGNNIGSKNVHWYQQKPGQAPVLVVYDDSDRPSGIPERFSGSNSGNTATLTISRVEAGDEADYYCQVWDSSSDHVVFGGGTKLTVL |
| – | – | 745000 | 5.5 nM | AB-009815 (antibody, mouse IgG2a, V domains shown) VH: QVQLQQWGAGLLKPSETLSLTCAVYGGSFSDYYWSWIRQPPGKGLEWIGEVNHRGSINYNNYNPSLKSRVTISVDTSKNQFSLKLTSVTAADTAVYYCAKPLRPHCTNGVCYSGDAFDIWGQGTMVTVAS VL: SYVLTQPPSVSVAPGQTARITCGGNNIGSKNVHWYQQKPGQAPVLVVYDDSDRPSGIPEQFSGSNSGNTATLTISRVEAGDEADYYCQVWDSSSDHLVFGGGTKLTVL |
| – | – | 407000 | 11.5 nM | AB-009814 (antibody, mouse IgG2a, V domains shown) VH: QVQLQQWGAGLLKPSETLSLTCAVYGGSFSDYYWSWIRQPPGKGLEWIGEVNHRGSINYNPSLKSRVTISVDPSKNQFSLKLTSVTAADTAVYYCAKPLRPHCTNGVCYSGDAFDIWGQGTMVTVAS VL: SYVLTQPPSVSVAPGQTARITCGGNNIGSKNVHWYQQKPGQAPVLVVYDDSDRPSGIPEQFSGSNSGNTATLTISRVEAGDEADYYCQVWDSSSDHLVFGGGTKLTVL |
| 75100 MedFI | – | – | – | AB-009805 (antibody, V domains shown) VH: QVQLQQWGAGLLKPSETLSLTCAVYGGSLSDYHWSWIRQPPGKGLEWIGEINHSGSTNYNPSLKSRVTISVDTSKNQFSLKLSSVSAADTAVYYCAKPFRPHCTNGVCHSGDAFDIWGQGTMATVSS VL: SYVLTQPPSVSVAPGQTARITCGGNNIGSKNVHWYQQKPGQAPVLVVYDDSDRPSGIPEQFSGSNSGNTATLTISRVEAGDEADYYCQVWDSSSDHLVFGGGTKLTVL |
| – | 1110 nM | – | – | AB-010361 (antibody, mouse IgG2a, V domains shown, Tested with mouse IgG2a constant regions (mIgG2a format)) VH: QVQLQQWGAGLLKPSETLSLTCAVYGGSFSGYYWSWIRQPPGKGLEWIGEINHRGSINYNNYNPSLKSRVTISVDTSKNQFSLKLSSVTAADTAVYYCAKPLRPHCTNGVCYSGDAFDIWGQGTMVTVAS VL: SYVLTQPPSVSVAPGQTARITCGGNNIGSKNVHWYQQKPGQAPVLVVYDDSDRPSGIPEQFSGSNSGNTATLTISRVEAGDEADYYCQVWDSSSDHVVFGGGTKLTVL |
| – | – | 568000 | 9.6 nM | AB-009812 (antibody, mouse IgG2a, V domains shown) VH: QVQLQQWGAGLLKPSETLSLTCAVYGGSFSDYYWSWIRQPPGKGLEWIGEVNHSGSINYNNYNPSLKSRVTISVDPSKNQFSLKLTSVTAADTAVYYCAKPLRPHCTNGVCYSGDAFDIWGQGTMVTVAS VL: SYVLTQPPSVSVAPGQTARITCGGNNIGSKNVHWYQQKPGQAPVLVVYDDSDRPSGIPEQFSGSNSGNTATLTISRVEAGDEADYYCQVWDSSSDHLVFGGGTKLTVL |
| – | – | 670000 | 5.5 nM | AB-009816 (antibody, mouse IgG2a, V domains shown) VH: QVQLQQWGAGLLKPSETLSLTCAVYGGSFSDYYWSWIRQPPGKGLEWIGEVNHRGSINYNNYNPSLKSRVTISVDASKNQFSLKLTSVTAADTAVYYCAKPLRPHCTNGVCYSGDAFDIWGQGTMVTVAS VL: SYVLTQPPSVSVAPGQTARITCGGNNIGSKNVHWYQQKPGQAPVLVVYDDSDRPSGIPEQFSGSNSGNTATLTISRVEAGDEADYYCQVWDSSSDHLVFGGGTKLTVL |
| 12700 MedFI | – | – | – | AB-009807 (antibody, mouse IgG2a, V domains shown) VH: QVQLQQWGAGLLKPSETLSLTCAVYGGSFNDYYWSWIRQPPGKGLEWIGEVNHSGSTSYNPSLKSRVTISVDTSKNQFSLKLSSVTAADTAVYYCAKPFRPHCTNGVCYSGDAFDIWGQGTMVTVSS VL: SYVLTQPPSVSVAPGQTARITCGGNNIGSKNVHWYQQKPGQAPALVVYDDSDRPSGIPEQFSGSNSGNTATLTISRVEAGDEADYYCQVWDSSSDHLVFGGGTKLTVL |
| – | – | 578000 | 6.8 nM | AB-009813 (antibody, mouse IgG2a, V domains shown) VH: QVQLQQWGAGLLKPSETLSLTCAVYGGSFSDYYWSWIRQPPGKGLEWIGEVNHAGSINYNNYNPSLKSRVTISVDPSKNQFSLKLTSVTAADTAVYYCAKPLRPHCTNGVCYSGDAFDIWGQGTMVTVAS VL: SYVLTQPPSVSVAPGQTARITCGGNNIGSKNVHWYQQKPGQAPVLVVYDDSDRPSGIPEQFSGSNSGNTATLTISRVEAGDEADYYCQVWDSSSDHLVFGGGTKLTVL |
| – | 2260 nM | – | – | AB-008873 (mouse IgG2a format) (antibody, V domains shown) VH: QVQLQQWGAGLLKPSETLSLTCAVYGGSFSDYYWSWIRQPPGKGLEWIGEVNHRGSINYNNYNPSLKSRVTISVDPSKNQFSLKLTSVTAADTAVYYCAKPLRPHCTNGVCYSGDAFDIWGQGTMVTVAS VL: SYVLTQPPSVSVAPGQTARITCGGNNIGSKNVHWYQQKPGQAPVLVVYDDSDRPSGIPEQFSGSNSGNTATLTISRVEAGDEADYYCQVWDSSSDHLVFGGGTKLTVLG |
